Data reported in patent US20070093418A1 (Amgen, published 2007).

Tests used:
2xCon4 (C) 1K [1] = biological target: T1, 2xCon4 (C) 1K; experiment: KinExA solution competition, 10 pM 2xCON4-C; soluble huAng-2 varied, competing with huAng-2 on beads
T1 construct: also called 2×Con4-C; 2×CON4-C (Pb5714)
Source text: (§1) Reacti-Gel 6× beads (Pierce, Rockford, Ill.) were pre-coated with huAng-2 and blocked with BSA. […] The amount of the bead-bound peptibody was quantified by fluorescent (Cy5) labeled goat anti-human-Fc antibody (Jackson Immuno Research, West Grove, Pa.). The binding signal is proportional to the concentration of free peptibody at equilibrium.
(§2) The dissociation equilibrium constant (KD) was obtained from nonlinear regression of the competition curves using a dual-curve one-site homogeneous binding model (KinE×™ software).

2xCon4 (C) 1K [2] = biological target: T1, 2xCon4 (C) 1K; experiment: KinExA solution competition, 30 pM 2xCON4-C; soluble huAng-2 varied, competing with huAng-2 on beads
Source text: as §1, §2

[3] = biological target: T2, Negative Control Peptibody 4883 (Homo sapiens (Human), UniProt P0DOX5 223-449 = IgG part); experiment: ELISA on conditioned medium with C-terminal hAng-2 (aa 255-495, C-terminal 6xHis); O.D. 370; pCDNA3 vector-control medium as blank
Protocol: (§3) The binding epitope of anti-Ang-2 antibodies and peptibodies was determined by their ability to bind the three versions of human hAng-2 by ELISA according to the following protocol: a high-binding 96-well assay plate was coated with 100 μl of conditioned media per well, and incubated at 37° C. for 1 hour. Conditioned media was aspirated, and the plate was blocked with 200 μl per well of 5% BSA in PBS at room temperature for 1 hour. The blocking solution was then aspirated. […] The wells were washed 4 times with 200 μl of 0.1% Tween in PBS. 100 μl per well of HRP-conjugated goat anti-human IgG or goat anti-mouse IgG were added, and incubated at room temperature for 45 minutes. The wells were then washed with 200 μl of 0.1% Tween in PBS 4 times. 100 μl per well of TMB substrate was then added. O.D. was read at 370 nm.

[4] = biological target: T3, Tie-2-Fc (R&D Systems, catalog number 313-TI) (human, UniProt Q02763 23-748); experiment: ELISA on conditioned medium with N-terminal hAng-2 (aa 1-254, C-terminal 6xHis); O.D. 370; pCDNA3 vector-control medium as blank
T3 construct: extracellular domain; bought; also called hTie2-Fc; Recombinant Human Tie-2-Fc Chimera; not shown: Fc of the bought chimera
Protocol: as §3

[5] = biological target: T2, Negative Control Peptibody 4883; experiment: as above
Protocol: as §3

Con4 (C) = biological target: T4, Con4 (C) (Homo sapiens (Human), UniProt P0DOX5 223-449 = IgG part); experiment: as above
T4 construct: also called TN8-Con4-C
Protocol: as §3

B1: human angiopoietin-2 (Ang-2) (ligand, UniProt O15123 19-496, looked up)
chain: YNNFRKSMDSIGKKQYQVQHGSCSYTFLLPEMDNCRSSSSPYVSNAVQRDAPLEYDDSVQRLQVLENIMENNTQWLMKLENYIQDNMKKEMVEIQQNAVQNQTAVMIEIGTNLLNQTAEQTRKLTDVEAQVLNQTTRLELQLLEHSLSTNKLEKQILDQTSEINKLQDKNSFLEKKVLAMEDKHIIQLQSIKEEKDQLQVLVSKQNSIIEELEKKIVTATVNNSVLQKQQHDLMETVNNLLTMMSTSNSAKDPTVAKEEQISFRDCAEVFKSGHTTNGIYTLTFPNSTEEIKAYCDMEAGGGGWTIIQRREDGSVDFQRTWKEYKVGFGNPSGEYWLGNEFVSQLTNQQRYVLKIHLKDWEGNEAYSLYEHFYLSSEELNYRIHLKGLTGTAGKISSISQPGNDFSTKDGDNDKCICKCSQMLTGGWWFDACGPSNLNGMYYPQRQNTNKFNGIKWYYWKGSGYSLKATTMMIRPADF
notes: Several preparations are used (R&D Systems protein, biotinylated R&D protein, 293T conditioned media); also called hAng-2; huAng-2
- IC50 (read off the curve) (2xCon4 (C) 1K [1]): ~0.01 nM
- IC50 (read off the curve) (2xCon4 (C) 1K [2]): ~0.04 nM

B2: C-term of hAng2 (aa 255-495) (ligand)
chain: VNNLLTMMSTSNSKDPTVAKEEQISFRDCAEVFKSGHTTNGIYTLTFPNSTEEIKAYCDMEAGGGGWTIIQRREDGSVDFQRTWKEYKVGFGNPSGEYWLGNEFVSQLTNQQRYVLKIHLKDWEGNEAYSLYEHFYLSSEELNYRIHLKGLTGTAGKISSISQPGNDFSTKDGDNDKCICKCSQMLTGGWWFDACGPSNLNGMYYPQRQNTNKFNGIKWYYWKGSGYSLKATTMMIRPADFHHHHHH
notes: also called C-terminal (amino acids 255-495) human Ang-2
- binding result [3]: no binding (tested: 1 µg/ml (single concentration))

B3: N-term hAng2 (aa 1-254) (ligand)
chain: YNNFRKSMDSIGKKQYQVQHGSCSYTFLLPEMDNCRSSSSPYVSNAVQRDAPLEYDDSVQRLQVLENIMENNTQWLMKLENYIQDNMKKEMVEIQQNAVQNQTAVMIEIGTNLLNQTAEQTRKLTDVEAQVLNQTTRLELQLLEHSLSTNKLEKQILDQTSEINKLQDKNSFLEKKVLAMEDKHIIQLQSIKEEKDQLQVLVSKQNSIIEELEKKIVTATVNNSVLQKQQHDLMETHHHHHH
notes: also called N-terminal (amino acids 1-254) human Ang-2
- binding result [4]: no binding (tested: 1 µg/ml (single concentration))
- binding result [5]: no binding (tested: 1 µg/ml (single concentration))
- binding result (Con4 (C)): no binding (tested: 1 µg/ml (single concentration))
